Measurements taken from article PMC4560963 (Molecular cell, 2015).

Target: the molecule itself
Test: native gel or EMSA

B1: recombinant His6-TAF11 (natural protein)
chain: not shown
- stoichiometry N: 4
